Molecular target: T1, human MICA (on target cells: MICA over-expressing P815, MICA+ Nalm6, endogenous on A2058, K562, CaSki) (human, UniProt Q29983 24-383)
T1 sequence (looked up): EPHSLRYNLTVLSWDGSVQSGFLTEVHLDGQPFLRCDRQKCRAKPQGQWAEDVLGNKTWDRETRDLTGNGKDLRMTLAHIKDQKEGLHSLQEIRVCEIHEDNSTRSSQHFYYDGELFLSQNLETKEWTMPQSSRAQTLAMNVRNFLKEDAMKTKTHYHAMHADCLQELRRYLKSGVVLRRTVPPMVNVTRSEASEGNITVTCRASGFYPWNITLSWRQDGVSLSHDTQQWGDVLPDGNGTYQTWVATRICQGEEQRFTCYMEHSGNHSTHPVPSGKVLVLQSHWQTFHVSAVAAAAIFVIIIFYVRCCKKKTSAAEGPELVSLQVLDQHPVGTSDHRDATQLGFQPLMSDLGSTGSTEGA
Test: cell-based or functional assay

B1: MICA/B CAR (anti-MICA/B chimeric antigen receptor; version not stated for the experiment) (other)
VH: QIQLVQSGPELKKPGETVKVSCKASGYMFTNYAMNWVKQAPEKGLKWMGWINTHTGDPTYADDFKGRIAFSLETSASTAYLQINNLKNEDTATYFCVRTYGNYAMDYWGQGTSVTVSS
VL: DIQMTQTTSSLSASLGDRVTISCSASQDISNYLNWYQQKPDGTVKLLIYDTSILHLGVPSRFSGSGSGTDYSLTISNLEPEDIATYYCQQYSKFPRTFGGGTTLEIK
EC50 of cytotoxicity (% Caspase 3/7+ target cells) of MICA/B CAR+ T cells on MICA+ Nalm6 cells over E:T ratios, 4 hours: ~1.9 E:T ratio | EC50 of cytotoxicity (% Caspase 3/7+ target cells) of MICA/B CAR+ iNK cells on P815 MICA+ cells over E:T ratios, 4 hours: ~5.2 E:T ratio
